From IntAct's records for PubMed 31515488

B1: Sperm microtubule associated protein 2 (Homo sapiens), Q9P2T0 (parent)
chain: MGDSRRRSLGNQPSSEAAGRSEREQDGDPRGLQSSVYESRRVTDPERQDLDNAELGPEDPEEELPPEEVAGEEFPETLDPKEALSELERVLDKDLEEDIPEISRLSISQKLPSTTMTKARKRRRRRRLMELAEPKINWQVLKDRKGRCGKGYAWISPCKMSLHFCLCWPSVYWTERFLEDTTLTITVPAVSRRVEELSRPKRFYLEYYNNNRTTPVWPIPRSSLEYRASSRLKELAAPKIRDNFWSMPMSEVSQVSRAAQMAVPSSRILQLSKPKAPATLLEEWDPVPKPKPHVSDHNRLLHLARPKAQSDKCVPDRDPRWEVLDVTKKVVASPRIISLAKPKVRKGLNEGYDRRPLASMSLPPPKASPEKCDQPRPGL
B2: Tetraspanin-5 (Homo sapiens), P62079 (parent)
chain: MSGKHYKGPEVSCCIKYFIFGFNVIFWFLGITFLGIGLWAWNEKGVLSNISSITDLGGFDPVWLFLVVGGVMFILGFAGCIGALRENTFLLKFFSVFLGIIFFLELTAGVLAFVFKDWIKDQLYFFINNNIRAYRDDIDLQNLIDFTQEYWQCCGAFGADDWNLNIYFNCTDSNASRERCGVPFSCCTKDPAEDVINTQCGYDARQKPEVDQQIVIYTKGCVPQFEKWLQDNLTIVAGIFIGIALLQIFGICLAQNLVSDIEAVRASW
partner: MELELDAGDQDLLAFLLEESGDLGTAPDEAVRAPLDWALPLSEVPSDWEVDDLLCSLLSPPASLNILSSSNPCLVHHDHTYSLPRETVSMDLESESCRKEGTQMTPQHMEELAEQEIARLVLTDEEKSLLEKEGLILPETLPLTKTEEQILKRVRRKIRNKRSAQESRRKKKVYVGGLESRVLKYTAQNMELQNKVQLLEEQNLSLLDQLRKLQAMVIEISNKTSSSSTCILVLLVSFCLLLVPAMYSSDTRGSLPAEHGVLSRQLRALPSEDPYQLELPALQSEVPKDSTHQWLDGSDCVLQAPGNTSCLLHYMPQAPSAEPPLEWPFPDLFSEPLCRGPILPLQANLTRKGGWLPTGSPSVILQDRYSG
B3: Chondroitin sulfate N-acetylgalactosaminyltransferase 2 (Homo sapiens), Q8N6G5 (parent)
chain: MPRRGLILHTRTHWLLLGLALLCSLVLFMYLLECAPQTDGNASLPGVVGENYGKEYYQALLQEQEEHYQTRATSLKRQIAQLKQELQEMSEKMRSLQERRNVGANGIGYQSNKEQAPSDLLEFLHSQIDKAEVSIGAKLPSEYGVIPFESFTLMKVFQLEMGLTRHPEEKPVRKDKRDELVEVIEAGLEVINNPDEDDEQEDEEGPLGEKLIFNENDFVEGYYRTERDKGTQYELFFKKADLTEYRHVTLFRPFGPLMKVKSEMIDITRSIINIIVPLAERTEAFVQFMQNFRDVCIHQDKKIHLTVVYFGKEGLSKVKSILESVTSESNFHNYTLVSLNEEFNRGRGLNVGARAWDKGEVLMFFCDVDIYFSAEFLNSCRLNAEPGKKVFYPVVFSLYNPAIVYANQEVPPPVEQQLVHKKDSGFWRDFGFGMTCQYRSDFLTIGGFDMEVKGWGGEDVHLYRKYLHGDLIVIRTPVPGLFHLWHEKRCADELTPEQYRMCIQSKAMNEASHSHLGMLVFREEIETHLHKQAYRTNSEAVG
B4: Trichoplein keratin filament-binding protein (Homo sapiens), Q9BT92 (parent)
chain: MALPTLPSYWCSQQRLNQQLARQREQEARLRQQWEQNSRYFRMSDICSSKQAEWSSKTSYQRSMHAYQREKMKEEKRRSLEARREKLRQLMQEEQDLLARELEELRLSMNLQERRIREQHGKLKSAKEEQRKLIAEQLLYEHWKKNNPKLREMELDLHQKHVVNSWEMQKEEKKQQEATAEQENKRYENEYERARREALERMKAEEERRQLEDKLQAEALLQQMEELKLKEVEATKLKKEQENLLKQRWELERLEEERKQMEAFRQKAELGRFLRHQYNAQLSRRTQQIQEELEADRRILQALLEKEDESQRLHLARREQVMADVAWMKQAIEEQLQLERAREAELQMLLREEAKEMWEKREAEWARERSARDRLMSEVLTGRQQQIQEKIEQNRRAQEESLKHREQLIRNLEEVRELARREKEESEKLKSARKQELEAQVAERRLQAWEADQQEEEEEEEARRVEQLSDALLQQEAETMAEQGYRPKPYGHPKIAWN
partner: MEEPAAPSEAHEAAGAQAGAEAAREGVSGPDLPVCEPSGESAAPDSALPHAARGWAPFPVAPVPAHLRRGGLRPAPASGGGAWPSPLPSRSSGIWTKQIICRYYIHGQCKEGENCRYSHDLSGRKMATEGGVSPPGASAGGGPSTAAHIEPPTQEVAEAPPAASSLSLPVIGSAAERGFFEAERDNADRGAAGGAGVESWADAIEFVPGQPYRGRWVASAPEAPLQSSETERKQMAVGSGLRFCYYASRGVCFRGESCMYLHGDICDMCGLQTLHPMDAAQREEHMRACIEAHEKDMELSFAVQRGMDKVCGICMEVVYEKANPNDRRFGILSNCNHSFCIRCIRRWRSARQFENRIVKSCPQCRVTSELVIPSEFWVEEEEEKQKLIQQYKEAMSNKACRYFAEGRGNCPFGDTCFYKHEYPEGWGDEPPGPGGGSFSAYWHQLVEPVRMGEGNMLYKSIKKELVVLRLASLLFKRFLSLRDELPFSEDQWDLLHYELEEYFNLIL
B5: Centrosomal protein of 55 kDa (Homo sapiens), Q53EZ4 (parent)
chain: MSSRSTKDLIKSKWGSKPSNSKSETTLEKLKGEIAHLKTSVDEITSGKGKLTDKERHRLLEKIRVLEAEKEKNAYQLTEKDKEIQRLRDQLKARYSTTTLLEQLEETTREGERREQVLKALSEEKDVLKQQLSAATSRIAELESKTNTLRLSQTVAPNCFNSSINNIHEMEIQLKDALEKNQQWLVYDQQREVYVKGLLAKIFELEKKTETAAHSLPQQTKKPESEGYLQEEKQKCYNDLLASAKKDLEVERQTITQLSFELSEFRRKYEETQKEVHNLNQLLYSQRRADVQHLEDDRHKTEKIQKLREENDIARGKLEEEKKRSEELLSQVQFLYTSLLKQQEEQTRVALLEQQMQACTLDFENEKLDRQHVQHQLHVILKELRKARNQITQLESLKQLHEFAITEPLVTFQGETENREKVAASPKSPTAALNESLVECPKCNIQYPATEHRDLLVHVEYCSK
partner: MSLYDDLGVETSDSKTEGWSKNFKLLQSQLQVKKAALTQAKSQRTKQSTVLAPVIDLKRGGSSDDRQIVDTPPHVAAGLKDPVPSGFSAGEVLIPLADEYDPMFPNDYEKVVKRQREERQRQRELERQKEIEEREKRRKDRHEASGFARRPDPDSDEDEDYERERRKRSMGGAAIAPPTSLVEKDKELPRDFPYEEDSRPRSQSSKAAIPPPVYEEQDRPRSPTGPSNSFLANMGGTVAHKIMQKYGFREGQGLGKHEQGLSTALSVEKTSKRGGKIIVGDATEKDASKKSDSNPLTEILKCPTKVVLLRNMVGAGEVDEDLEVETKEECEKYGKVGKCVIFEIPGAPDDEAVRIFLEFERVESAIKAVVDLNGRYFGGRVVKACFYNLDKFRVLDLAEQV
B6: Phagosome assembly factor 1 (Homo sapiens), Q9BSU1 (parent)
chain: MLDLEVVPERSLGNEQWEFTLGMPLAQAVAILQKHCRIIKNVQVLYSEQSPLSHDLILNLTQDGIKLMFDAFNQRLKVIEVCDLTKVKLKYCGVHFNSQAIAPTIEQIDQSFGATHPGVYNSAEQLFHLNFRGLSFSFQLDSWTEAPKYEPNFAHGLASLQIPHGATVKRMYIYSGNSLQDTKAPMMPLSCFLGNVYAESVDVLRDGTGPAGLRLRLLAAGCGPGLLADAKMRVFERSVYFGDSCQDVLSMLGSPHKVFYKSEDKMKIHSPSPHKQVPSKCNDYFFNYFTLGVDILFDANTHKVKKFVLHTNYPGHYNFNIYHRCEFKIPLAIKKENADGQTETCTTYSKWDNIQELLGHPVEKPVVLHRSSSPNNTNPFGSTFCFGLQRMIFEVMQNNHIASVTLYGPPRPGSHLRTAELP
B7: Tripartite motif-containing protein 10 (Homo sapiens), Q9UDY6 (parent)
chain: MASAASVTSLADEVNCPICQGTLREPVTIDCGHNFCRACLTRYCEIPGPDLEESPTCPLCKEPFRPGSFRPNWQLANVVENIERLQLVSTLGLGEEDVCQEHGEKIYFFCEDDEMQLCVVCREAGEHATHTMRFLEDAAAPYREQIHKCLKCLRKEREEIQEIQSRENKRMQVLLTQVSTKRQQVISEFAHLRKFLEEQQSILLAQLESQDGDILRQRDEFDLLVAGEICRFSALIEELEEKNERPARELLTDIRSTLIRCETRKCRKPVAVSPELGQRIRDFPQQALPLQREMKMFLEKLCFELDYEPAHISLDPQTSHPKLLLSEDHQRAQFSYKWQNSPDNPQRFDRATCVLAHTGITGGRHTWVVSIDLAHGGSCTVGVVSEDVQRKGELRLRPEEGVWAVRLAWGFVSALGSFPTRLTLKEQPRQVRVSLDYEVGWVTFTNAVTREPIYTFTASFTRKVIPFFGLWGRGSSFSLSS
partner: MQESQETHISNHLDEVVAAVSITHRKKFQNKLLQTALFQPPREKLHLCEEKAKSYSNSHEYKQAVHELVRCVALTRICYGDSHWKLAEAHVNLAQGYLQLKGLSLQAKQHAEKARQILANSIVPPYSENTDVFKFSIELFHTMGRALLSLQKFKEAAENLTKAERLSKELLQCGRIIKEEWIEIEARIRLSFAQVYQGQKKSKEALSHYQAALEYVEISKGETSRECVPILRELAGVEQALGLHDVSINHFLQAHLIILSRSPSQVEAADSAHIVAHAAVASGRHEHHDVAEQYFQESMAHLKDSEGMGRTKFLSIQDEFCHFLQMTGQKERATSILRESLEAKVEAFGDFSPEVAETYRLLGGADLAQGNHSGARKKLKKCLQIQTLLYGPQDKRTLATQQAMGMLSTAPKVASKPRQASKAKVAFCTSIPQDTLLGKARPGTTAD

Variants of: B1
Settings: with fhl3_human FHL3, Q13643
Chain of fhl3_human FHL3, Q13643 (Q13643 whole entry): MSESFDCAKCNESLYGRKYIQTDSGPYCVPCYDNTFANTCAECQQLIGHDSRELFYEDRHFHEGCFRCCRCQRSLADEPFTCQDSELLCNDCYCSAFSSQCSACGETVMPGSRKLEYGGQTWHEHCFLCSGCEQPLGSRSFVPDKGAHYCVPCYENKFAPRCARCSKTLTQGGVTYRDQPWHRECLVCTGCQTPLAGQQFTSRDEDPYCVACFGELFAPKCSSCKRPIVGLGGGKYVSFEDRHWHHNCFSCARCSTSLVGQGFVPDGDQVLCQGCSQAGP

Row | effect of a mutation on the interaction | Variant
1 | with no effect | R147C
2 | with no effect | P66S
3 | with no effect | H297Y
4 | with no effect | L131R
5 | with no effect | S39N
6 | with no effect | D79G
7 | with no effect | M249V
8 | with no effect | T184A
9 | with no effect | R176Q
10 | with no effect | R176W
11 | with no effect | R231H

Variants of: B2
Settings: with creb3_human CREB3, O43889

Row | effect of a mutation on the interaction | Variant
12 | with no effect | T218M

Variants of: B3
Settings: with BCL2L13, Q9BXK5
Chain of BCL2L13, Q9BXK5 (Q9BXK5 whole entry): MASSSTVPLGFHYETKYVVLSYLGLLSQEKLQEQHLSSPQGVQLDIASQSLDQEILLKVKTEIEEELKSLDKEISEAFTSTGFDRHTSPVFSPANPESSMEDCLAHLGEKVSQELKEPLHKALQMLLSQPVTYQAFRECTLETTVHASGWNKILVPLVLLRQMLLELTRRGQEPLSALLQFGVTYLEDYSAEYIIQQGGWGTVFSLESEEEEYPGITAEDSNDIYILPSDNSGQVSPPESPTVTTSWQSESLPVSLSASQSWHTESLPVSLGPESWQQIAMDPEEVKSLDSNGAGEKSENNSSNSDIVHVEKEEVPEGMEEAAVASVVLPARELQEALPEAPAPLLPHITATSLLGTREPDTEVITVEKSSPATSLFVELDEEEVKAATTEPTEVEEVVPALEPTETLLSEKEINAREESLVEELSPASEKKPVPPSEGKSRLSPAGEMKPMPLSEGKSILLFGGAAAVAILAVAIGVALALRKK

Row | effect of a mutation on the interaction | Variant
13 | with no effect | P479S

Variants of: B4
Settings: with mkrn3_human MKRN3, Q13064

Row | effect of a mutation on the interaction | Variant
14 | with no effect | E417K
15 | with no effect | K127R

Variants of: B5
Settings: with spf45_human RBM17, Q96I25

Row | effect of a mutation on the interaction | Variant
16 | with no effect | C236R
17 | with no effect | A244P
18 | with no effect | H57Q
19 | with no effect | R348K

Variants of: B6
Settings: with bcas3_human BCAS3, Q9H6U6
Chain of bcas3_human BCAS3, Q9H6U6 (Q9H6U6 whole entry): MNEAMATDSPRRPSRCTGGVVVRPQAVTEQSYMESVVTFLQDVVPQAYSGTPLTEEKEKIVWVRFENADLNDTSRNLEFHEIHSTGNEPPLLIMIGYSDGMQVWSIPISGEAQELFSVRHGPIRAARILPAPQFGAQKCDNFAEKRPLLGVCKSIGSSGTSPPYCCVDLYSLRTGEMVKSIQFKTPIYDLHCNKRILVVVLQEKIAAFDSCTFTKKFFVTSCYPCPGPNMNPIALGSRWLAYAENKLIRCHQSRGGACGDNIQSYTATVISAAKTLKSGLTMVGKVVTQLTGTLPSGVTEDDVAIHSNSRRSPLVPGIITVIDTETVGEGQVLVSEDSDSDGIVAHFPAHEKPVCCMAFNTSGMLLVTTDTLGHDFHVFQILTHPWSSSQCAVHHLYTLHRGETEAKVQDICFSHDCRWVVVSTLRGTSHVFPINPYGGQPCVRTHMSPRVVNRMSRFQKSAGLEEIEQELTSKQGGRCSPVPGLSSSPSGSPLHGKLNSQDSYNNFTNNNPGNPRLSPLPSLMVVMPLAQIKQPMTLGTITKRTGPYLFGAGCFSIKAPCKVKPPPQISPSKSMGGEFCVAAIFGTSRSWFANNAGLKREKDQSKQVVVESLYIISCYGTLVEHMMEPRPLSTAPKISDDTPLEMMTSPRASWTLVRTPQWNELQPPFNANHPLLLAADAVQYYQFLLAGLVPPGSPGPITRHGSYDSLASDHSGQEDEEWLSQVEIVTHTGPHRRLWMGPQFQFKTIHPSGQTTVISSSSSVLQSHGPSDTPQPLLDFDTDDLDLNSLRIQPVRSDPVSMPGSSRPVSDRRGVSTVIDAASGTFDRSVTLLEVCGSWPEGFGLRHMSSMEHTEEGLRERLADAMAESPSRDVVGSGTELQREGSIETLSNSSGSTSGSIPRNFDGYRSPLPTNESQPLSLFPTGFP

Row | effect of a mutation on the interaction | Variant
20 | with no effect | G13R

Variants of: B7
Settings: with ttc23_human TTC23, Q5W5X9

Row | effect of a mutation on the interaction | Variant
21 | disrupting interaction strength | I236T
